According to the nanobody polyreactivity screen of Harvey et al. (2022):

Test: yeast display, Sf9 membrane polyspecificity reagent, FACS + sequencing; frameworks hold sequencing errors
Method in brief: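 Sorting gates, low and high (top ~1%), were placed on anti-HA fluorescence to track expression and on streptavidin fluorescence to track reagent binding. A clone's polyreactivity label is taken from the gate it came out of. The reagent was 10% biotinylated, detergent-solubilized Sf9 membrane, applied for 1 hour at 4 °C to galactose-induced yeast display cells.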

Question: With “QVQLVESGGGLVQAGGSLRLSCAASGLTFSYYAMGWYRQAPGKERELVAAISWSGGITYYADSVKGRFTISRDNAKNTVYLQMNSLKPEDTAVYYCAADGYPTLYDYWGQGTQVTVSS” as the sequence, how does the “polyreactivity (PSR sort gate)” value read?
Answer: The value was “high polyreactivity”.

Question: For “QVQLVESGGGLVQAGGSLRLSCAASGLTFSYYAMGWYRQAPGKERELVAAITRSGTRTYYADSVKGRFTISRDNAKNTVYLQMNSLKPVDTAVYYCARYLRGDFQQGEHWGQGTQVTVSS”, which “polyreactivity (PSR sort gate)” value is on record?
Answer: The value was “high polyreactivity”.

Question: For “QVQLVESGGGLVQAGGSLRLSCAASGLTFTFYTMGWYRQAPGKERELVAAISIGGSTYYADSVKGRFTISRDNAKNTVYLQMNSLKQEDTAVYYCAAGYSRYYGHWGYYYWGQGTQVTVSS”, which “polyreactivity (PSR sort gate)” value is on record?
Answer: The value was “high polyreactivity”.

Question: Which “polyreactivity (PSR sort gate)” value does the source give for “QVQLVESGGGLVQAGGSLRLSCAASGLTFTSYAMGWYRQAPGKERELVAAIDWSGGRTYYADSVKGRFTISRDNAKNTVYLQMNSLKPEDTAVYYCAAYSRNRALRFNYWGQGTQVTVSS” here?
Answer: The value was “high polyreactivity”.

Question: With “QVQLVESGGGLVQAGGSLRLSCAASGLTFTYYAMGWNRQAPGKQRELVAAISSSGSDTYYADSVKGRFTISRDNAKNTVYLLMNSLKPEDTAVYYCAAVLTALSPDFEYEYWGQGTQVTVSS” as the sequence, how does the “polyreactivity (PSR sort gate)” value read?
Answer: Its value is “low polyreactivity”.

Question: With “QVQLVESGGGLVQAGGSLRLSCAASGLTFTYYAMGWYRQAPGKERELVAAITYSGDSKYYADSVKGLFTISRDNAKNTVYLQMNSLKPEDTAVYYCNAEQYLYYILGNYDYWGQGTQVTVSS” as the sequence, how does the “polyreactivity (PSR sort gate)” value read?
Answer: The value was “low polyreactivity”.

Question: With “QVQLVESGGGLVQAGGSLRLSCAASGLTFVDNALGWYRQAPGKERELVAAISYNGGSTYYADSVKGRFTISRDNAKNTVYLQMNSLKPEDTAVYYCAADISVGRYGDMDYWGQGTQVTVSS” as the sequence, how does the “polyreactivity (PSR sort gate)” value read?
Answer: The value was “low polyreactivity”.

Question: Which “polyreactivity (PSR sort gate)” value does the source give for “QVQLVESGGGLVQAGGSLRLSCAASGLTFVDYAMGWYRQAPGKERELVADYYFQRWFYGLRRLCEGALHNFTRQCQEYRNLQMNSLKPEDTAVYYCNTDGPTVAYSEYYYWGQGTQVTVSS” here?
Answer: The value was “low polyreactivity”.

Question: With “QVQLVESGGGLVQAGGSLRLSCAASGLTFVDYTKGWYRQAPGNERELVAAIDWSGGSTYYADSVKGRFTISRDNAKNPVYLQMNSLKPEDTAVYYCNALRRFYSMDDYWGQGTQVTVSS” as the sequence, how does the “polyreactivity (PSR sort gate)” value read?
Answer: The value was “low polyreactivity”.

Question: Which “polyreactivity (PSR sort gate)” value does the source give for “QVQLVESGGGLVQAGGSLRLSCAASGLTFVEYAMGWYRQAPGKEREFVAAIRSRGGSTYYADSVKGRFTISRDNAKNTVYLQMNSLKPEDTAVYYCTADGYFWGQGTQVTVSS” here?
Answer: The value was “low polyreactivity”.

Question: Which “polyreactivity (PSR sort gate)” value does the source give for “QVQLVESGGGLVQAGGSLRLSCAASGLTFVGYAMGWNRQAPGKERELVAAISGVGTTNYGDSVKGRFTISRDNAKNTVYLQMNSLKPEDTAVYYCAKAPYPVPYGLYDYWGQGTQVTVSS” here?
Answer: The value was “low polyreactivity”.

Question: With “QVQLVESGGGLVQAGGSLRLSCAASGLTFVKNAMGWNRQAPGKERELVAAITVSGSRTYYADSVKGRFTISRDNAKNTVYLQMNSLKPEDTGVYYCNAYPYYLVRNMDSWGQGTLVTVSS” as the sequence, how does the “polyreactivity (PSR sort gate)” value read?
Answer: Its value is “high polyreactivity”.

Question: For “QVQLVESGGGLVQAGGSLRLSCAASGLTFVKNAMGWYRQAPGKERELVATISSGGSTNYADSVKGRFTISRDNAKNTVYLQMNSLKPEDTAVYYCNKDYTGVLLWIWWDRYDYWGQATQVTVSS”, which “polyreactivity (PSR sort gate)” value is on record?
Answer: Its value is “high polyreactivity”.

Question: For “QVQLVESGGGLVQAGGSLRLSCAASGLTFVQNAMGWYRQAPGKERELVAAISSRGGSTYYADSVKGRFTISRDNAKNTVYLQMNSLKPEETAVYYCNTRSITKYDYWRRGYGYWGQGTQVTVSS”, which “polyreactivity (PSR sort gate)” value is on record?
Answer: The value was “high polyreactivity”.

Question: For “QVQLVESGGGLVQAGGSLRLSCAASGLTFVTNAMGWYRQAPGKERELVAGISWSDGSTYYADSVKGRFTISRDNAKNTVYLQMNSVKPEDSAVYYCNAGVDLHYGYITYGVYGYDYWGQGTQVTVSS”, which “polyreactivity (PSR sort gate)” value is on record?
Answer: Its value is “low polyreactivity”.

Question: For “QVQLVESGGGLVQAGGSLRLSCAASGLTFVWYAMGWYRQAPGKDRELVAAITLSGGSTYYADSGKGRFTISRDNAKNTVYLQMNSLIPEDTAVYYCAADGTYRPEDYDYWGQGTQVTVSS”, which “polyreactivity (PSR sort gate)” value is on record?
Answer: Its value is “low polyreactivity”.

Question: For “QVQLVESGGGLVQAGGSLRLSCAASGLTFVYNNMGWYRQAPGKERELVAAINWSGGRTYYADSVKGRFTISRDNAKNTVYLQMNSLKPEDTAVYYCAALYVPNTPTYKYDYWGQGTQVTVSS”, which “polyreactivity (PSR sort gate)” value is on record?
Answer: Its value is “low polyreactivity”.

Question: For “QVQLVESGGGLVQAGGSLRLSCAASGLTFVYYAMGWYRQAPGKERELLAAISRSGGSTYYADSVKGRFTISRDNAKNTVYLQMNSLKPEDTAVYYCAAEATKWFGVVTMDYWGQGTQVTVSS”, which “polyreactivity (PSR sort gate)” value is on record?
Answer: The value was “high polyreactivity”.

Question: For “QVQLVESGGGLVQAGGSLRLSCAASGLTFVYYAMGWYRQAPGKERELVASITRGGSTNYADSVKGRFTISRDNAKNTVYLQMTSLKPEDTAVYYCAAGYGGWAWIHVSYGGDYWGQGTQVSVSS”, which “polyreactivity (PSR sort gate)” value is on record?
Answer: Its value is “low polyreactivity”.

Question: With “QVQLVESGGGLVQAGGSLRLSCAASGLTFWANTMGWYRQAPGKERELVAAITWSGGSTYYADSVKGRFTISRDNAKNTVNLQMNSLKPEDTAVYYCAADEYFAAGYSYYYWGQGSQVTVSS” as the sequence, how does the “polyreactivity (PSR sort gate)” value read?
Answer: Its value is “low polyreactivity”.

Question: Which “polyreactivity (PSR sort gate)” value does the source give for “QVQLVESGGGLVQAGGSLRLSCAASGLTFWDYAMGWYRQAPGKETELVAAISNDDSTYADSVKGRFTISRDNAKNTVYLQMNSLKPEDTAVYYCAAQSYYTWPEMGYWGQGTQVTVSS” here?
Answer: The value was “low polyreactivity”.

Question: For “QVQLVESGGGLVQAGGSLRLSCAASGLTFWKYTMGWYRQAPGKERELVAAISISGTNTYYADSVKGRFTISRDNAKNTVYLQMNSLKPEDTAVYYCAAVRGYPPTNYYYWGQGTQVSVSS”, which “polyreactivity (PSR sort gate)” value is on record?
Answer: The value was “high polyreactivity”.

Question: Which “polyreactivity (PSR sort gate)” value does the source give for “QVQLVESGGGLVQAGGSLRLSCAASGLTFWKYTMGWYRQAPGKERELVAAISISGTNTYYADSVKGRFTISRDNAKNTVYLQMNSLKPEDTAVYYCAAVRGYPPTNYYYWGQGTQVTVSS” here?
Answer: The value was “high polyreactivity”.

Question: Which “polyreactivity (PSR sort gate)” value does the source give for “QVQLVESGGGLVQAGGSLRLSCAASGLTFWVYTMGWYRQAPGKERELVARITSRGASTYYADSVKGRFTISRDNAKNTVYLQMNSLKPEDTAVYYCATDRYRIYPDYDYWGQGTQVTVSS” here?
Answer: The value was “high polyreactivity”.

Question: With “QVQLVESGGGLVQAGGSLRLSCAASGLTFWYYAMGWYRQAPGKERELVAAISWSGGRTSYADSVKGRFTISRDNAKNTVYLQMNSLKPEDTAVYYCAADKDFRTGEFEYDYWGQGTQLTVSS” as the sequence, how does the “polyreactivity (PSR sort gate)” value read?
Answer: The value was “high polyreactivity”.

Question: Which “polyreactivity (PSR sort gate)” value does the source give for “QVQLVESGGGLVQAGGSLRLSCAASGLTFYFYAMGWYIQAPGKERELVAAIDWGGGSTYYADSVKGRFTISRDYAKNTVYLQMNSLKPEDTAVYYCAARGYYYNYDVNYWGQGTQVTVSS” here?
Answer: The value was “low polyreactivity”.

Question: With “QVQLVESGGGLVQAGGSLRLSCAASGLTFYFYAMGWYRQAPGKERELVAAIDWGGGSTYYADSVKGRFTISRDNAKNTVYLQMNSLKPEDTAVYYCAARGYYYNYDVNYWGQGTQVTVSS” as the sequence, how does the “polyreactivity (PSR sort gate)” value read?
Answer: Its value is “low polyreactivity”.

Question: With “QVQLVESGGGLVQAGGSLRLSCAASGLTFYGNAMGWYRQAPGKERELVAAISSSGGTTYYADSVKGRFTISRDNAKNTVYLQMNSLKPEDTAVYYYWGQGTQVTVSS” as the sequence, how does the “polyreactivity (PSR sort gate)” value read?
Answer: The value was “low polyreactivity”.

Question: For “QVQLVESGGGLVQAGGSLRLSCAASGLTFYGNAMGWYRQAPGKERELVAAISSSGGTTYYADSVKGRFTISRDNEKNTVYLQMNSLKPEDTAVYYCNTRNTYFYAGYDYWGQGTQVTVSS”, which “polyreactivity (PSR sort gate)” value is on record?
Answer: Its value is “low polyreactivity”.

Question: With “QVQLVESGGGLVQAGGSLRLSCAASGLTFYGNAMGWYRQAPGKETELVADISLSGGRTFYADSVKGRFTISRDNAKNTVYLQMNSLKPEDTAVYYCAKTYTSGYHRRYDYWGQGTQVTVSS” as the sequence, how does the “polyreactivity (PSR sort gate)” value read?
Answer: The value was “low polyreactivity”.

Question: Which “polyreactivity (PSR sort gate)” value does the source give for “QVQLVESGGGLVQAGGSLRLSCAASGLTFYGYGMGWYRPGPGKERELVASITSGGNTYYADSVKGRFTISRDNAKNNVYLQMYSLKPEDNAVSYCAVTAIALYYSSGYYWGQGTQVTVSS” here?
Answer: The value was “low polyreactivity”.

Question: With “QVQLVESGGGLVQAGGSLRLSCAASGLTFYGYTMGWSRQAPGKERELVAAISWSGGNTYYADSVKGRFTISRDNEKNTVYLQMNSLKPEDTAVYYCAAEHWTYDWVDYWGQGTQVTVSS” as the sequence, how does the “polyreactivity (PSR sort gate)” value read?
Answer: The value was “low polyreactivity”.

Question: With “QVQLVESGGGLVQAGGSLRLSCAASGLTFYHVNAMGWYRQAPGKERELVAGISTRGGSTYYADSVKGRFTISRDNAKNTVYLQMNSLKPEDTAVYYCAAYGSAAQKYPYDRPYRYGYWGQGTQVTVSS” as the sequence, how does the “polyreactivity (PSR sort gate)” value read?
Answer: The value was “high polyreactivity”.

Question: For “QVQLVESGGGLVQAGGSLRLSCAASGLTFYHYAMGSYRQAPGKERELVAAITTIGGSTNYADSVKGRFTISRDNAKNTVYLQMNSLKPADNAVYYCAKKLTDAQASSHYDYWGQGTQVTVSS”, which “polyreactivity (PSR sort gate)” value is on record?
Answer: Its value is “low polyreactivity”.

Question: For “QVQLVESGGGLVQAGGSLRLSCAASGLTFYIYAMGWYRQAPGKERELVASITWSTTSTSYADSVKGRFTISRDNAKNTVYLQLKSLKPEDTAVYYCNADVPGYFLYDDSYEYWGQGTQVTVSS”, which “polyreactivity (PSR sort gate)” value is on record?
Answer: Its value is “low polyreactivity”.

Question: With “QVQLVESGGGLVQAGGSLRLSCAASGLTFYKNAMGWYRQAPGKERELVAVISSSGGSTYYADSVKGRFTISRDNAKNTVYLQMYSLKPEDSAVYYFARDLYTEYRWGRLTYDYRGQGTQVTVSS” as the sequence, how does the “polyreactivity (PSR sort gate)” value read?
Answer: The value was “low polyreactivity”.

Question: For “QVQLVESGGGLVQAGGSLRLSCAASGLTFYLYAMGWYRQAPGKERELVAAISRSGGSTYYADSVKGRFTISRDNAKNTVYLQMNSLKPEDTAVYYCAAVTYYPEIRKYYYWGQGTQVTVSS”, which “polyreactivity (PSR sort gate)” value is on record?
Answer: The value was “high polyreactivity”.

Question: With “QVQLVESGGGLVQAGGSLRLSCAASGLTFYRNAMGWYRQAPGKERELVAAITKSGARTYYAVSVKGRFTISRDNAKNTVYLQMNSLKPEDTAVYYCAADALNTYYYWGQGTQVTVSS” as the sequence, how does the “polyreactivity (PSR sort gate)” value read?
Answer: The value was “high polyreactivity”.

Question: For “QVQLVESGGGLVQAGGSLRLSCAASGLTFYSNSMGWYRPAPGKERELVAVISADGASTYYADSVKGRFTISRDNAKNTVYLQMNSLKPEDTAVYYCAARVSARGKGYYWGQGTQVTVSS”, which “polyreactivity (PSR sort gate)” value is on record?
Answer: Its value is “high polyreactivity”.

Question: For “QVQLVESGGGLVQAGGSLRLSCAASGLTFYTNAMGWYRQAPGKERELVAAITSSGGRTYYADSVKGRFTISRDNAKNTVYLQMNILKPEDTAVYYCAADALRPRIPEMYYWGQGTQVTVSS”, which “polyreactivity (PSR sort gate)” value is on record?
Answer: Its value is “high polyreactivity”.

Question: For “QVQLVESGGGLVQAGGSLRLSCAASGLTFYTYPMGWYRQAPGKERELVAAISSSTGSTYYADSVKGRFTISRDNAKNTVYLQMNSLKPEDSAVYYCAAESYWGVNYWGQGTQVTVSS”, which “polyreactivity (PSR sort gate)” value is on record?
Answer: Its value is “high polyreactivity”.
